Source: article PMC8397269 (Science Advances, 2021)

How the values were obtained:
His-IRIF 53BP1 = His-IRIF 53BP1 (human, UniProt Q12888 1222-1659); assay: pull-down
[1] = target: T1, His-lamin B1, full length (human, UniProt P20700 1-586); assay: pull-down
T1 sequence (looked up): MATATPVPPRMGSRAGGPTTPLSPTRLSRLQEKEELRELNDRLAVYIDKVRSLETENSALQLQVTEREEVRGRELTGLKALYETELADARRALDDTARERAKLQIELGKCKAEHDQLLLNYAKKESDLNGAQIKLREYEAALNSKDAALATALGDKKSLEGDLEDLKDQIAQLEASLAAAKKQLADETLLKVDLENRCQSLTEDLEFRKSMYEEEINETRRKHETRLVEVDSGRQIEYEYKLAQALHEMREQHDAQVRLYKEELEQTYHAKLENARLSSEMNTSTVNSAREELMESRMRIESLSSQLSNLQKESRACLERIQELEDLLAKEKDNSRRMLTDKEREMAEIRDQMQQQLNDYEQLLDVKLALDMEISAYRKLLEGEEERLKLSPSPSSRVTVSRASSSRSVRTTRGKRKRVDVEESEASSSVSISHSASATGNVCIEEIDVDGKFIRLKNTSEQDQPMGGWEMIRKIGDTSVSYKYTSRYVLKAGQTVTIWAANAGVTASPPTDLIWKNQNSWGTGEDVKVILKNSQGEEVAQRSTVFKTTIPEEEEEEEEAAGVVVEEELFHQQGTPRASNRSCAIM

| Binder | binding result (His-IRIF 53BP1) | binding result [1] |
| --- | --- | --- |
| GST-Nterm lamin B1 (domain or fragment, human, UniProt P20700 1-424, looked up) MATATPVPPRMGSRAGGPTTPLSPTRLSRLQEKEELRELNDRLAVYIDKVRSLETENSALQLQVTEREEVRGRELTGLKALYETELADARRALDDTARERAKLQIELGKCKAEHDQLLLNYAKKESDLNGAQIKLREYEAALNSKDAALATALGDKKSLEGDLEDLKDQIAQLEASLAAAKKQLADETLLKVDLENRCQSLTEDLEFRKSMYEEEINETRRKHETRLVEVDSGRQIEYEYKLAQALHEMREQHDAQVRLYKEELEQTYHAKLENARLSSEMNTSTVNSAREELMESRMRIESLSSQLSNLQKESRACLERIQELEDLLAKEKDNSRRMLTDKEREMAEIRDQMQQQLNDYEQLLDVKLALDMEISAYRKLLEGEEERLKLSPSPSSRVTVSRASSSRSVRTTRGKRKRVDVEES | binds | – |
| GST-Head-Coil1 lamin B1 (domain or fragment, human, UniProt P20700 1-243, looked up) MATATPVPPRMGSRAGGPTTPLSPTRLSRLQEKEELRELNDRLAVYIDKVRSLETENSALQLQVTEREEVRGRELTGLKALYETELADARRALDDTARERAKLQIELGKCKAEHDQLLLNYAKKESDLNGAQIKLREYEAALNSKDAALATALGDKKSLEGDLEDLKDQIAQLEASLAAAKKQLADETLLKVDLENRCQSLTEDLEFRKSMYEEEINETRRKHETRLVEVDSGRQIEYEYKLA | binds | – |
| GST-53BP1 IRIF (domain or fragment, human, UniProt Q12888 1222-1659, looked up) EEEFDMPQPPHGHVLHRHMRTIREVRTLVTRVITDVYYVDGTEVERKVTEETEEPIVECQECETEVSPSQTGGSSGDLGDISSFSSKASSLHRTSSGTSLSAMHSSGSSGKGAGPLRGKTSGTEPADFALPSSRGGPGKLSPRKGVSQTGTPVCEEDGDAGLGIRQGGKAPVTPRGRGRRGRPPSRTTGTRETAVPGPLGIEDISPNLSPDDKSFSRVVPRVPDSTRRTDVGAGALRRSDSPEIPFQAAAGPSDGLDASSPGNSFVGLRVVAKWSSNGYFYSGKITRDVGAGKYKLLFDDGYECDVLGKDILLCDPIPLDTEVTALSEDEYFSAGVVKGHRKESGELYYSIEKEGQRKWYKRMAVILSLEQGNRLREQYGLGPYEAVTPLTKAADISLDNLVEGKRKRRSNVSSPATPTASSSSSTTPTRKITESPRA | – | binds |
